Test results: article PMC4090178, “Structural and Biochemical Characterization of Human PR70 in Isolation and in Complex with the Scaffolding Subunit of Protein Phosphatase 2A” (PLoS ONE, 2014)

B1: PR70 (105–575) (domain or fragment, human, UniProt Q9Y5P8 105-575, looked up)
chain: GTRVVQTRKEEPLPPATSQSIPTFYFPRGRPQDSVNVDAVISKIESTFARFPHERATMDDMGLVAKACGCPLYWKGPLFYGAGGERTGSVSVHKFVAMWRKILQNCHDDAAKFVHLLMSPGCNYLVQEDFVPFLQDVVNTHPGLSFLKEASEFHSRYITTVIQRIFYAVNRSWSGRITCAELRRSSFLQNVALLEEEADINQLTEFFSYEHFYVIYCKFWELDTDHDLLIDADDLARHNDHALSTKMIDRIFSGAVTRGRKVQKEGKISYADFVWFLISEEDKKTPTSIEYWFRCMDLDGDGALSMFELEYFYEEQCRRLDSMAIEALPFQDCLCQMLDLVKPRTEGKITLQDLKRCKLANVFFDTFFNIEKYLDHEQKEQISLLRDGDSGGPELSDWEKYAAEEYDILVAEETAGEPWEDGFEAELSPVEQKLSALRSPLAQRPFFEAPSPLGAVDLYEYACGDEDLEPL
notes: PR70 (B''β), regulatory B'' subunit of PP2A, human, product of PPP2R3B; source: E. coli BL21(DE3), purified (IMAC, TEV cleavage, gel filtration); not shown: His tag, N-terminal, cleaved
B2: PR70 (25–575) (domain or fragment, human, UniProt Q9Y5P8 25-575, looked up)
chain: EASTQRMLQDCLRRIKAPGRDQPTPGDGEQPGAWPTAPLAAPRPSGLEPPGTPGPGPALPLGAASSPRNAPHVRGTRRSAGTRVVQTRKEEPLPPATSQSIPTFYFPRGRPQDSVNVDAVISKIESTFARFPHERATMDDMGLVAKACGCPLYWKGPLFYGAGGERTGSVSVHKFVAMWRKILQNCHDDAAKFVHLLMSPGCNYLVQEDFVPFLQDVVNTHPGLSFLKEASEFHSRYITTVIQRIFYAVNRSWSGRITCAELRRSSFLQNVALLEEEADINQLTEFFSYEHFYVIYCKFWELDTDHDLLIDADDLARHNDHALSTKMIDRIFSGAVTRGRKVQKEGKISYADFVWFLISEEDKKTPTSIEYWFRCMDLDGDGALSMFELEYFYEEQCRRLDSMAIEALPFQDCLCQMLDLVKPRTEGKITLQDLKRCKLANVFFDTFFNIEKYLDHEQKEQISLLRDGDSGGPELSDWEKYAAEEYDILVAEETAGEPWEDGFEAELSPVEQKLSALRSPLAQRPFFEAPSPLGAVDLYEYACGDEDLEPL
notes: PR70 (B''β), regulatory B'' subunit of PP2A, human, product of PPP2R3B; also called B''/PR70; source: E. coli BL21(DE3), purified (IMAC, TEV cleavage, gel filtration); not shown: His tag, N-terminal, cleaved

Tests used:
Assay in all cases: ITC; B''-constructs at 20–40 µM in the cell titrated with 200–300 µM Aα or Aβ constructs; 15°C; 20 mM Tris pH 7.5, 200 mM NaCl, 2 mM CaCl2; 1:1 binding model
[1] = biological target: B2
[2] = biological target: B1
[3] = biological target: T1, A α (HEAT1–15) (UniProt P30153 1-589); details: both partners purified
T1 construct: PP2A scaffolding subunit A, α isoform, product of PPP2R1A; HEAT repeats 1–15; calculated molecular weight 65.3 kD; also called full length A-subunit; scaffolding A subunit; source: E. coli BL21(DE3), purified (IMAC, TEV cleavage, gel filtration); not shown: His tag, N-terminal, cleaved
T1 sequence (P30153 whole entry, canonical isoform): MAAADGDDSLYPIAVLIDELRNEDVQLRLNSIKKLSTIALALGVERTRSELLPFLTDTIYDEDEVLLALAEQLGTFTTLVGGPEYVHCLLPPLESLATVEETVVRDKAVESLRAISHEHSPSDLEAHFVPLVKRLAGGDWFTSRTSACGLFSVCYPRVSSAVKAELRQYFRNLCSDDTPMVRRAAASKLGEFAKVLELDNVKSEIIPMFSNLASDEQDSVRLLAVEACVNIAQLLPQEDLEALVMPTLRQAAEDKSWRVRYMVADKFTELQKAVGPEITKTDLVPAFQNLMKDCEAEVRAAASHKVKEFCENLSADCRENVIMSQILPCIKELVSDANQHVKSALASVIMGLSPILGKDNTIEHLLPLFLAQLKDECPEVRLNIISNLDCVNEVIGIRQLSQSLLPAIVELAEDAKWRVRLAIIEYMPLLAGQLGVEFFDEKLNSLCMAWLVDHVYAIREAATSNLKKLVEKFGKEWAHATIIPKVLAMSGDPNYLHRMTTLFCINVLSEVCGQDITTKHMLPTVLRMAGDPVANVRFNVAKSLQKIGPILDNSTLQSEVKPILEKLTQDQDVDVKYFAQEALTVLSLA

Kd [3] [nM]	Molecule	also measured
	A β (HEAT1–15) (from UniProt P30154 1-601) (natural protein)	Kd [1]: 702 nM; dH [1]: -21.5 kcal/mol; stoichiometry N [1]: 1.01; Kd [2]: 411 nM; dH [2]: -17.1 kcal/mol; stoichiometry N [2]: 0.86
45 ± 8	B1	
112 ± 6	B2	
> 100000	PR70 (130–555) (domain or fragment, human, UniProt Q9Y5P8 130-555, looked up, PR70 (B''β), regulatory B'' subunit of PP2A, human, product of PPP2R3B; residues 130–555; source: E. coli BL21(DE3), purified (IMAC, TEV cleavage, gel filtration); not shown: His tag, N-terminal, cleaved) FPRGRPQDSVNVDAVISKIESTFARFPHERATMDDMGLVAKACGCPLYWKGPLFYGAGGERTGSVSVHKFVAMWRKILQNCHDDAAKFVHLLMSPGCNYLVQEDFVPFLQDVVNTHPGLSFLKEASEFHSRYITTVIQRIFYAVNRSWSGRITCAELRRSSFLQNVALLEEEADINQLTEFFSYEHFYVIYCKFWELDTDHDLLIDADDLARHNDHALSTKMIDRIFSGAVTRGRKVQKEGKISYADFVWFLISEEDKKTPTSIEYWFRCMDLDGDGALSMFELEYFYEEQCRRLDSMAIEALPFQDCLCQMLDLVKPRTEGKITLQDLKRCKLANVFFDTFFNIEKYLDHEQKEQISLLRDGDSGGPELSDWEKYAAEEYDILVAEETAGEPWEDGFEAELSPVEQKLSALRSPLAQRPFFEAPS	
> 100000	PR70 core fragment (residues 130–483) (domain or fragment, human, UniProt Q9Y5P8 130-483, looked up, PR70 (B''β), regulatory B'' subunit of PP2A, human, product of PPP2R3B; The crystal (PDB 4MEW) was of the selenomethionine-labelled protein alone; the model holds residues 134–481; also called PR70 core domain; source: E. coli BL21(DE3), purified (IMAC, TEV cleavage, gel filtration); not shown: His tag, N-terminal, cleaved) FPRGRPQDSVNVDAVISKIESTFARFPHERATMDDMGLVAKACGCPLYWKGPLFYGAGGERTGSVSVHKFVAMWRKILQNCHDDAAKFVHLLMSPGCNYLVQEDFVPFLQDVVNTHPGLSFLKEASEFHSRYITTVIQRIFYAVNRSWSGRITCAELRRSSFLQNVALLEEEADINQLTEFFSYEHFYVIYCKFWELDTDHDLLIDADDLARHNDHALSTKMIDRIFSGAVTRGRKVQKEGKISYADFVWFLISEEDKKTPTSIEYWFRCMDLDGDGALSMFELEYFYEEQCRRLDSMAIEALPFQDCLCQMLDLVKPRTEGKITLQDLKRCKLANVFFDTFFNIEKYLDHEQK	
> 100000	PR70 (130–504) (domain or fragment, human, UniProt Q9Y5P8 130-504, looked up, PR70 (B''β), regulatory B'' subunit of PP2A, human, product of PPP2R3B; residues 130–504; source: E. coli BL21(DE3), purified (IMAC, TEV cleavage, gel filtration); not shown: His tag, N-terminal, cleaved) FPRGRPQDSVNVDAVISKIESTFARFPHERATMDDMGLVAKACGCPLYWKGPLFYGAGGERTGSVSVHKFVAMWRKILQNCHDDAAKFVHLLMSPGCNYLVQEDFVPFLQDVVNTHPGLSFLKEASEFHSRYITTVIQRIFYAVNRSWSGRITCAELRRSSFLQNVALLEEEADINQLTEFFSYEHFYVIYCKFWELDTDHDLLIDADDLARHNDHALSTKMIDRIFSGAVTRGRKVQKEGKISYADFVWFLISEEDKKTPTSIEYWFRCMDLDGDGALSMFELEYFYEEQCRRLDSMAIEALPFQDCLCQMLDLVKPRTEGKITLQDLKRCKLANVFFDTFFNIEKYLDHEQKEQISLLRDGDSGGPELSDWEK	
2920 ± 300	PR72 (24–529) (domain or fragment, UniProt Q06190-2 24-529, looked up, PR72 (B''α2), regulatory B'' subunit of PP2A, product of PPP2R3A; residues 24–529; the end at 529 fits the PR72 isoform of 529 residues, not PR130; also called PR72 subunit (residue 24–529); B''α2; source: E. coli BL21(DE3), purified (IMAC, TEV cleavage, gel filtration); not shown: His tag, N-terminal, cleaved) GCDFVLPSRFKKRLKSFQQTQIQNKPEKKPGTPLPPPATSPSSPRPLSPVPHVNNVVNAPLSINIPRFYFPEGLPDTCSNHEQTLSRIETAFMDIEEQKADIYEMGKIAKVCGCPLYWKAPMFRAAGGEKTGFVTAQSFIAMWRKLLNNHHDDASKFICLLAKPNCSSLEQEDFIPLLQDVVDTHPGLTFLKDAPEFHSRYITTVIQRIFYTVNRSWSGKITSTEIRKSNFLQTLALLEEEEDINQITDYFSYEHFYVIYCKFWELDTDHDLYISQADLSRYNDQASSSRIIERIFSGAVTRGKTIQKEGRMSYADFVWFLISEEDKRNPTSIEYWFRCMDVDGDGVLSMYELEYFYEEQCERMEAMGIEPLPFHDLLCQMLDLVKPAVDGKITLRDLKRCRMAHIFYDTFFNLEKYLDHEQRDPFAVQKDVENDGPEPSDWDRFAAEEYETLVAEESAQAQFQEGFEDYETDEPASPSEFGNKSNKILSASLPEKCGKLQSVDEE	
